Data published in PMC4957108.

Assays:
[1] = molecular target: CagA-C1164S (Helicobacter pylori strain 26695) (UniProt P55980); test: AUC; sedimentation velocity, 20 °C, 10 mM HEPES pH 7.7, 150 mM NaCl, 1 mM EDTA; 5.5 μM CagA-CS, 11 μM PAR1b (39–364), alone or mixed; c(s) by SEDFIT
[2] = molecular target: GST-CagA-1CM^W1 (Helicobacter pylori strain 26695) (UniProt P55980); test: pull-down; quantitative GST pull-down: GST-CagA on beads in a range of concentrations, fixed low concentration of PAR1b (39–364)-FLAG, GST-binding buffer with 0.01% Triton-X, 20 min at 4 °C, unbound PAR1b in the supernatant quantified, binding to GST control subtracted; apparent KD
[3] = molecular target: GST-CagA-1CM^W2 (Helicobacter pylori strain 26695) (UniProt P55980); test: as above
[4] = molecular target: GST-CagA-1CM^E (Helicobacter pylori strain 26695) (UniProt P55980); test: as above

Substance | stoichiometry N (PAR1b per CagA) [1] | Kd [2] [nM] | Kd [3] [nM] | Kd [4] [nM]
PAR1b (39–364) (from UniProt Q7KZI7-14 39-364) (domain or fragment) | 2 | – | – | –
PAR1b (39–364)-FLAG (from UniProt Q7KZI7-14 39-364) (domain or fragment) | – | 90.3 | 106 | 46.4
